Data taken from paper PMC6099927.

Target: Plasmodium falciparum lactate dehydrogenase (PfLDH) (Plasmodium falciparum) (UniProt Q27743)
Assay: APTEC plate capture assay
Settings: 2x PBS binding buffer (recombinant PfLDH), 1 h, streptavidin plate coated with DNA, PBST (0.1% Tween-20) washes, absorbance 570 nm; blood: 1:1 with PBS 0.5% …

Plasmodium falciparum lactate dehydrogenase (PfLDH) (Plasmodium falciparum), sequence (Q27743 whole entry): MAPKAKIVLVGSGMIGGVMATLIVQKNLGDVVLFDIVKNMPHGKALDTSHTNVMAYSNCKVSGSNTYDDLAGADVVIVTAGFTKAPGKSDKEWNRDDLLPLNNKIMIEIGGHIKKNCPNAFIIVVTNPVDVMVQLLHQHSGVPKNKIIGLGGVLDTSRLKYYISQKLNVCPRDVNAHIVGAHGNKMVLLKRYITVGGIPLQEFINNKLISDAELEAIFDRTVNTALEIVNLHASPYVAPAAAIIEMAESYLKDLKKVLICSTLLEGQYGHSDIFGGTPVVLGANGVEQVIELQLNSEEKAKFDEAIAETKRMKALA

GCAACAGAGCCCTATTCTGTCTCAGTCCACCGGGTTAGGAAACGCGAGTCAGT / CTGGGCGGTAGAACCATAGTGACCCAGCCGTCTACTTCCCTAACGCCTGCGTGAATAGGGCTCTGTTGC / CTGGGCGGTAGAACCATAGTGACCCAGCCGTCTACTTGATCTCAACTCAGTTACCCGGTGGACTGAGAC / CTGGGCGGTAGAACCATAGTGACCCAGCCGTCTACTTTCATCTGGGGCCTTTACTGACTCGCGTTTCCT / TAAGGCCCCAGATGATAAACCCAGGCCGGCCCT / TCGCTCGACAGAGATACTATTAGTACCAGGCCCGATAGGGCCGGCCTGGGTTT / TCGCAGGCGTTAGGGTTCGGGCCTGGTACTAAT / TACTGAGTTGAGATCTGTATCTCTGTCGAGCGA [prism with three aptamers]
Kd: 1.38 nM
